From US20220251236A1 (Boehringer Ingelheim, published 2022)

How the values were obtained:
Human DLL3-His = molecular target: T1, Human DLL3-His (human, UniProt Q9NYJ7 27-492); assay: SPR (ProteOn XPR36), bispecific captured on protein A/G, hu DLL3 as analyte, Example 4B
T1 construct: also called huDLL3-His; hu DLL3
T1 sequence: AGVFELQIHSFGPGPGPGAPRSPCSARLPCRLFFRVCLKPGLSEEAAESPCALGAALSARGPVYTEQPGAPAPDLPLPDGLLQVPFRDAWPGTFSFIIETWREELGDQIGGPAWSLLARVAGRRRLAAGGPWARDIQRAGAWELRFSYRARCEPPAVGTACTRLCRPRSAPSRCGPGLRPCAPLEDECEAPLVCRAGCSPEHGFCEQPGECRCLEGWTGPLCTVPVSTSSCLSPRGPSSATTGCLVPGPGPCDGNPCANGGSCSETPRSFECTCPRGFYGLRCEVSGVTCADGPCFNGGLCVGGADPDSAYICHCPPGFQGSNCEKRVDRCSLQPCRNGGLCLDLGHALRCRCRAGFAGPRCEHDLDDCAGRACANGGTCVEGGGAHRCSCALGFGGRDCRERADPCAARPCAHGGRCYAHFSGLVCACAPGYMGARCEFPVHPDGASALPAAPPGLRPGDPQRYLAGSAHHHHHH
Summary of the method: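 Bispecific constructs captured on protein A/G for 200 s at 30 μl/min, baseline stabilized with PBS-T-EDTA. Human DLL3 analyte injected 300 s at 30 μl/min; dissociation followed for 1800 s.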

[1] = molecular target: T2, FLAG-tagged human DLL1 full length (human, UniProt O00548 1-723); assay: flow cytometry on HEK293 cells expressing human DLL1 (HEK293-huDLL1), PE anti-human secondary, control: secondary antibody only
T2 construct: also called human DLL1 on HEK293 cells
T2 sequence: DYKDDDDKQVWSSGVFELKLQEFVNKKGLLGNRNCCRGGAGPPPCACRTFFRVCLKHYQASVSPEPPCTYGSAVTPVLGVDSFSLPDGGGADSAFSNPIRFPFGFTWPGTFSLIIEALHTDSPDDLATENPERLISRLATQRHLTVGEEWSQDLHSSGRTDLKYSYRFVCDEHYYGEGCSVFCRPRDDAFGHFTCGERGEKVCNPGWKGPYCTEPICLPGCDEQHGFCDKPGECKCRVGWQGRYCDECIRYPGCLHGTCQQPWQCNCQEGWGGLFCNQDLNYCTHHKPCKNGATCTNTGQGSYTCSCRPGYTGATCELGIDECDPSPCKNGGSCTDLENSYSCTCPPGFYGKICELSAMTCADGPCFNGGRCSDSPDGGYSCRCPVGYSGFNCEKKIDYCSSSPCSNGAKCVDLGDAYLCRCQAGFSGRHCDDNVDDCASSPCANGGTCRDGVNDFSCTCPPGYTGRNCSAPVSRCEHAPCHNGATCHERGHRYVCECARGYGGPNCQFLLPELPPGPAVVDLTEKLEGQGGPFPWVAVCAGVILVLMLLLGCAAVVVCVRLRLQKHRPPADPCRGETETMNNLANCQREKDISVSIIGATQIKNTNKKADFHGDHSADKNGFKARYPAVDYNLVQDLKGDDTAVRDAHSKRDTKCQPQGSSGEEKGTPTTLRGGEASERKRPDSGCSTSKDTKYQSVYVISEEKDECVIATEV
Procedure: (§1) Bound molecules were detected with PE-conjugated anti-human secondary antibody (Sigma-Aldrich, #P8047). As negative control, cells were incubated with secondary antibody only. The samples were measured by flow-cytometry.

[2] = molecular target: T3, FLAG-tagged human DLL4 full length (human, UniProt Q9NR61 1-685); assay: flow cytometry on HEK293 cells expressing human DLL4 (HEK293-huDLL4), PE anti-human secondary, control: secondary antibody only
T3 construct: also called human DLL4 on HEK293 cells
T3 sequence (Q9NR61 other isoform, or with tags, fused parts or gaps limits assumed): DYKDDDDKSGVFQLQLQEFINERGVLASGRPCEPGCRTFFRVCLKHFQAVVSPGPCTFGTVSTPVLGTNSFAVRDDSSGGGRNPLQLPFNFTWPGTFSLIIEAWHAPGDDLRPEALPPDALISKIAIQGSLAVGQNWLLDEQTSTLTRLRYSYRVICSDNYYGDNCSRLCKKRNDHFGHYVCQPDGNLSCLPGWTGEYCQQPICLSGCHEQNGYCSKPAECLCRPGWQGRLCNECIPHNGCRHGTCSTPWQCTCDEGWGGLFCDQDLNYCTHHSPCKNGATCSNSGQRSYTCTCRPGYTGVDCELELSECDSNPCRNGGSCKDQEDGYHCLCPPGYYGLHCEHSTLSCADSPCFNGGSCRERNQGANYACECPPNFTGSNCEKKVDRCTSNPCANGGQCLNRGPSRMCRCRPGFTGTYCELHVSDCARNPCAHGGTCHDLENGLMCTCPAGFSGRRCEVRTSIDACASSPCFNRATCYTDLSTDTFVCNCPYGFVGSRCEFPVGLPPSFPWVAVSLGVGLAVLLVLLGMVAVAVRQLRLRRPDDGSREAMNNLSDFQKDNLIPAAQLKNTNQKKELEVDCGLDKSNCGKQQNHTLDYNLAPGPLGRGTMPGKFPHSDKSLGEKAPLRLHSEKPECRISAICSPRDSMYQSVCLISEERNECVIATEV
Procedure: as §1

EGF1+2 = molecular target: T4, EGF1+2; assay: flow cytometry on HEK293 cells expressing the DLL3 subdomain construct, PE anti-human secondary, control: secondary antibody only
T4 construct: also called Hu DLL3 EGF1+2 on HEK293 cells
T4 membrane-anchored DLL3 subdomain construct: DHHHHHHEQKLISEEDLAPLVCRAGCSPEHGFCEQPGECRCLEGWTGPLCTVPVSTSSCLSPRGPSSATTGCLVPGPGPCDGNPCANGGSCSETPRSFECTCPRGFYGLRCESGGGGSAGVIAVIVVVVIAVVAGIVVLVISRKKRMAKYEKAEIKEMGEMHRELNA
Summary of the method: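 Binders tested on HEK293 cells displaying the DLL3 subdomain construct; bound molecules detected by flow cytometry using PE-conjugated anti-human secondary antibody. Negative control: cells with secondary antibody only.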

B1: DLL3#4/CD3#1 (bispecific antibody, human IgG1, kappa, lambda, L234A L235A)
chain 1: not shown
chain 2: EAVVTQEPSLTVSPGGTVTLTCRSSTGAVTTSNYANWVQEKPGQLPRGLIGGTNKRAPWVPARFSGSLLGGKAALTLSGAQPEDEAEYFCALWYSNLWVFGGGTKLTVLGQPKAAPSVTLFPPSSEELQANKATLVCLISDFYPGAVKVAWKADGSPVNTGVETTTPSKQSNNKYAASSYLSLTPEQWKSHRSYSCQVTHEGSTVEKTVAPAECSGGGGSEGKSSGSGSESKSTEGKSSGSGSESKSTGGGGSEVQLVESGGGLVQPGGSLKLSCAASGFTFNTYAMNWVRQAPGKGLEWVARIRSKYNNYATYYADSVKDRFTISRDDSKNTAYLQMNNLKTEDTAVYYCVRHGNFGNSYVSWFAYWGQGTLVTVSAASTKGPSVFPLAPSSKSTSGGTAALGCLVKDYFPEPVTVSWNSGALTSGVHTFPAVLQSSGLYSLSSVVTVPSSSLGTQTYICNVNHKPSNTKVDKRVEPKSCDKTHTCPPCPAPEAAGGPSVFLFPPKPKDTLMISRTPEVTCVVVDVSHEDPEVKFNWYVDGVEVHNAKTKPREEQYNSTYRVVSVLTVLHQDWLNGKEYKCKVSNKALPAPIEKTISKAKGQPREPQVYTLPPSREEMTKNQVSLSCAVKGFYPSDIAVEWESNGQPENNYKTTPPVLDSDGSFFLVSKLTVDKSRWQQGNVFSCSVMHEALHNRFTQKSLSLSPG
notes: Heterodimer of one DLL3 chain and one CD3 chain (scFab-Fc, knob-in-hole)
Kd (Human DLL3-His): < 0.02 nM
binding result [1]: no binding (tested: 1.6 nM)
binding result [2]: no binding (tested: 1.6 nM)
binding result (EGF1+2): no binding (tested: 1.6 nM)

B2: DLL3#6/CD3#1 (bispecific antibody, human IgG1, kappa, lambda, L234A L235A)
chain 1: DIQLTQSPSFLSTSVGDRVTITCRASQDISNYFAWYQQKPGKAPKLLIYAASTLQSGVPSRFSGGGSGTEFTLTISSLQPEDFATYYCQQLNSYPYTFGQGTKLEIKRTVAAPSVFIFPPSDEQLKSGTASVVCLLNNFYPREAKVQWKVDNALQSGNSQESVTEQDSKDSTYSLSSTLTLSKADYEKHKVYACEVTHQGLSSPVTKSFNRGECGGGGSEGKSSGSGSESKSTEGKSSGSGSESKSTGGGGSQVQLQESGPGLVKPSETLSLTCTVSGGSISSYFWSWIRQPAGKGLEWIGRIYTSGSTNYNPSLNSRLTMSVDTSKNQFSLKLSSVTAADTAVYYCARRGDWGGFDIWGQGTVVTVSSASTKGPSVFPLAPSSKSTSGGTAALGCLVKDYFPEPVTVSWNSGALTSGVHTFPAVLQSSGLYSLSSVVTVPSSSLGTQTYICNVNHKPSNTKVDKRVEPKSCDKTHTCPPCPAPEAAGGPSVFLFPPKPKDTLMISRTPEVTCVVVDVSHEDPEVKFNWYVDGVEVHNAKTKPREEQYNSTYRVVSVLTVLHQDWLNGKEYKCKVSNKALPAPIEKTISKAKGQPREPQVYTLPPSREEMTKNQVSLWCLVKGFYPSDIAVEWESNGQPENNYKTTPPVLDSDGSFFLYSKLTVDKSRWQQGNVFSCSVMHEALHNHYTQKSLSLSPG
chain 2: B1 chain 2
notes: as for B1
Kd (Human DLL3-His): 0.152 nM
binding result [1]: no binding (tested: 1.6 nM)
binding result [2]: no binding (tested: 1.6 nM)
binding result (EGF1+2): no binding (tested: 1.6 nM)
